From article PMC2114693

Molecular target: human erythrocyte adducin (human) (UniProt P35611)
Experiment: co-sedimentation

human erythrocyte adducin (human), sequence (P35611 whole entry, chain 1 of 2): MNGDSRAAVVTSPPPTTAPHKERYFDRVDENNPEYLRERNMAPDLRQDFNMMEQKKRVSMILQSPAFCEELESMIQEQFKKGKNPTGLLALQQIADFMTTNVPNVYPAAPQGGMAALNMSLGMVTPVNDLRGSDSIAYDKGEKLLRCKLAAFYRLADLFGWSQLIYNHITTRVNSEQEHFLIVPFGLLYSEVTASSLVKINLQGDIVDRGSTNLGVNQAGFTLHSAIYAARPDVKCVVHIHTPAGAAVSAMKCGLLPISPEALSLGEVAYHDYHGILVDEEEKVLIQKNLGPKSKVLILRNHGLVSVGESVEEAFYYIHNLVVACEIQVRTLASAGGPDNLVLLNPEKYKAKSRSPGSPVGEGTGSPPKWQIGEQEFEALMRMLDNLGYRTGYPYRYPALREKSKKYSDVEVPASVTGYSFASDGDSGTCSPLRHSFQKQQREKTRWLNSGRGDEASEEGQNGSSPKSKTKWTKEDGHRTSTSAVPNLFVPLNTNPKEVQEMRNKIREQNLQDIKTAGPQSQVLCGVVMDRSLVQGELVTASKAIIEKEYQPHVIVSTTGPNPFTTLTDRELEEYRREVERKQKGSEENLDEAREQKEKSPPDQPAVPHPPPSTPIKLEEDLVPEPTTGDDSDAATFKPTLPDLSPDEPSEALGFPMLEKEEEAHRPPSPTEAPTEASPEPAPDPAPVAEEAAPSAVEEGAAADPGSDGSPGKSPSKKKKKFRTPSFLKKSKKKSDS
human erythrocyte adducin (human), sequence (P35612 whole entry, chain 2 of 2, further chain): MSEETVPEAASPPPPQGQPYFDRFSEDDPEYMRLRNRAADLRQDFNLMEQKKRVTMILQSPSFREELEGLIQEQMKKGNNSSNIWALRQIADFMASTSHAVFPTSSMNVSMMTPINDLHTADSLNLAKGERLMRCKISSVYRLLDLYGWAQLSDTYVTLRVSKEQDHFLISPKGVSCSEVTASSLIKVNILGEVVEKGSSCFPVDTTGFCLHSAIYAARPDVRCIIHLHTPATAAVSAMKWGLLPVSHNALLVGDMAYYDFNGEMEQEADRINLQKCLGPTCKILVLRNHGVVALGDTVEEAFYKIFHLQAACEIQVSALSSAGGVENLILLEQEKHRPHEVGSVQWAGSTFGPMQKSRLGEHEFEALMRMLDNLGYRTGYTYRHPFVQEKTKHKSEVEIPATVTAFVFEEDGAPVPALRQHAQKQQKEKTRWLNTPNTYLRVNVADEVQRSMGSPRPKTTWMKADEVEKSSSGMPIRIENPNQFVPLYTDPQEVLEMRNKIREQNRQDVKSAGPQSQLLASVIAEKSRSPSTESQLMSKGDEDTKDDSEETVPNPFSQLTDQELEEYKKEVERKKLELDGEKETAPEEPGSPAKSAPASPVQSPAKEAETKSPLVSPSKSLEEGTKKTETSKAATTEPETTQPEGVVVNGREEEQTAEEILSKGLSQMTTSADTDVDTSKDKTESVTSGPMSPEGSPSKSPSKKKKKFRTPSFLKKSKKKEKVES

IC50: 4 µM
Substance: bovine brain calmodulin (from UniProt P62157 1-149) (natural protein)
